B1: LINE1-mini (parent)
chain: GGCAGAGCUCAACACAGCGUGGCAAAGUGGCUGUGGCUAGACUGCC

Variants of: B1
Test: self-cleavage, relative activity (ratio to wild type); higher = more cleavage; in vitro, sequencing; the parent is a self-cleaving ribozyme

Variant | self-cleavage
C8G C13U | 0.18
C8G C13G | 0.04
C8G C13A | 0.11
C8A A16U | 0.23
C8A A26G | 0.21
C8A A26C | 0.26
C8A A26U | 0.3
C8A U38C | 0.2
C8A U38G | 0.07
C8A U38A | 0.26
C8G G17U | 0.07
C8G G17A | 0.08
C8G G17C | 0.04
C8A U32C | 0.23
C8A U32G | 0.45
C8A U32A | 0.16
C8A U28A | 0.17
C8A U28C | 0.25
C8A U28G | 0.08
C8U A25C | 0.21
C8U A25U | 0.18
C8U A25G | 0.13
C8G C23U | 0.1
C8G C23A | 0.1

Variant | self-cleavage
C8G C23G | 0.08
C8U U34G | 0.22
C8U U34C | 0.18
C8U U34A | 0.1
C8U U28C | 0.2
C8U U28G | 0.13
C8U U28A | 0.19
C8A C18A | 0.37
C8A C18G | 0.15
C8A C18U | 0.27
C8U A41U | 0.47
C8U A41G | 0.2
C8U A41C | 0.16
C8A A41C | 0.36
C8A A41G | 0.29
C8A A41U | 0.48
C8A C15U | 0.23
C8A C15G | 0.22
C8A C15A | 0.37
C8U A24C | 0.24
C8U A24G | 0.14
C8U A24U | 0.33
C8A G21C | 0.21
C8A G21A | 0.63

Variant | self-cleavage
C8A G21U | 0.23
C8G C10U | 0.06
C8G C10G | 0.02
C8G C10A | 0.03
C8A C23A | 0.25
C8A C23U | 0.27
C8A C23G | 0.22
C8G G35A | 0.13
C8G G35U | 0.2
C8G G35C | 0.06
C8A C42A | 0.29
C8A C42G | 0.19
C8A C42U | 0.24
C8G A24U | 0.3
C8G A24G | 0.15
C8G A24C | 0.09
C8A U43A | 0.14
C8A U43G | 0.11
C8A U43C | 0.17
C8G A16U | 0.06
C8G A16C | 0.11
C8G A16G | 0.11
C8G C42A | 0.05
C8G C42U | 0.09

Variant | self-cleavage
C8G C42G | 0.06
C8U C23G | 0.29
C8U C23U | 0.25
C8U C23A | 0.21
C8G A41U | 0.25
C8G A41G | 0.13
C8G A41C | 0.14
C8A C46U | 0.43
C8A C46A | 0.35
C8A C46G | 0.33
C8G G30A | 0.21
C8G G30C | 0.1
C8G G30U | 0.2
C8G U43G | 0.88
C8G U43A | 0.03
C8G U43C | 0.02
C8A C31A | 0.36
C8A C31G | 0.15
C8A C31U | 0.21
C8U U9A | 0.32
C8U U9G | 0.09
C8U U9C | 0.06
C8A A25C | 0.45
C8A A25U | 0.36

Variant | self-cleavage
C8A A25G | 0.23
C8A G22U | 0.24
C8A G22A | 0.18
C8A G22C | 0.17
C8G C45U | 0.06
C8G C45G | 0.08
C8G C45A | 0.08
C8U U20G | 0.12
C8U U20C | 0.09
C8U U20A | 0.21
C8A G36A | 0.65
C8A G36U | 0.22
C8A G36C | 0.29
C8G A11G | 0.03
C8G A11U | 0.03
C8G A11C | 0.02
C8U G29C | 0.1
C8U G29A | 0.21
C8U G29U | 0.46
C8A U34A | 0.25
C8A U34G | 0.34
C8A U34C | 0.26
C8G G19U | 0.04
C8G G19C | 0.05

Variant | self-cleavage
C8G G19A | 0.15
C8U C42G | 0.13
C8U C42U | 0.17
C8U C42A | 0.11
C8G A25G | 0.1
C8G A25C | 0.11
C8G A25U | 0.26
C8U | 0.29
C8G | 0.13
C8U U38C | 0.22
C8U U38G | 0.04
C8U U38A | 0.27
C8U U43G | 0.12
C8U U43C | 0.16
C8U U43A | 0.08
C8A A39U | 0.45
C8A A39C | 0.32
C8A A39G | 0.08
C8G U28A | 0.05
C8G U28G | 0.06
C8G U28C | 0.46
C8G C46U | 0.09
C8G C46G | 0.11
C8G C46A | 0.05

Variant | self-cleavage
C8G U9A | 0.21
C8G U9G | 0.12
C8G U9C | 0.02
C8A G30C | 0.26
C8A G30A | 0.42
C8A G30U | 0.59
C8U A16G | 0.16
C8U A16C | 0.13
C8U A16U | 0.13
C8G U38C | 0.05
C8G U38A | 0.06
C8G U38G | 0.32
C8A G19C | 0.1
C8A G19U | 0.11
C8A G19A | 0.38
C8A G35C | 0.16
C8A G35A | 0.42
C8A G35U | 0.44
C8G U32A | 0.04
C8G U32C | 0.06
C8G U32G | 0.06
C8G G29U | 0.11
C8G G29A | 0.06
C8G G29C | 0.04

Variant | self-cleavage
C8G C18U | 0.1
C8G C18G | 0.08
C8G C18A | 0.04
C8G A12U | 0.13
C8G A12G | 0.03
C8G A12C | 0.02
C8U G22A | 0.15
C8U G22U | 0.16
C8U G22C | 0.15
C8G G36A | 0.18
C8G G36C | 0.08
C8G G36U | 0.07
C8G U20C | 0.08
C8G U20A | 0.08
C8G U20G | 0.09
C8A G44U | 0.43
C8A G44A | 0.45
C8A G44C | 0.23
C8U G35C | 0.09
C8U G35A | 0.32
C8U G35U | 0.42
C8G U34G | 0.08
C8G U34C | 0.04
C8G U34A | 0.05

Variant | self-cleavage
C8U G44U | 0.35
C8U G44C | 0.08
C8U G44A | 0.39
C8U C18G | 0.23
C8U C18U | 0.14
C8U C18A | 0.18
C8A G33U | 0.18
C8A G33A | 0.16
C8A G33C | 0.28
C8U G30U | 0.29
C8U G30C | 0.26
C8U G30A | 0.24
C8A G17C | 0.22
C8A G17A | 0.3
C8A G17U | 0.27
C8G C15A | 0.11
C8G C15G | 0.05
C8G C15U | 0.1
C8G C31G | 0.05
C8G C31A | 0.06
C8G C31U | 0.11
C8A A24G | 0.38
C8A A24C | 0.31
C8A A24U | 0.34

Variant | self-cleavage
C8G G27C | 0.1
C8G G27A | 0.17
C8G G27U | 0.11
C8U C31G | 0.17
C8U C31U | 0.14
C8U C31A | 0.21
C8U C15U | 0.25
C8U C15G | 0.09
C8U C15A | 0.11
C8U A26C | 0.21
C8U A26G | 0.29
C8U A26U | 0.36
C8G G40C | 0.09
C8G G40U | 0.09
C8G G40A | 0.13
C8U A39C | 0.2
C8U A39G | 0.05
C8U A39U | 0.09
C8U C37G | 0.07
C8U C37A | 0.14
C8U C37U | 0.2
C8U G17C | 0.16
C8U G17A | 0.15
C8U G17U | 0.14

Variant | self-cleavage
C8A C13G | 0.36
C8A C13U | 0.9
C8A C13A | 0.67
C8U A11U | 0.03
C8U A11C | 0.07
C8U A11G | 0.03
C8G A39G | 0.06
C8G A39U | 0.04
C8G A39C | 0.17
C8G G44A | 0.04
C8G G44U | 0.04
C8G G44C | 0.05
C8U G19A | 0.35
C8U G19C | 0.17
C8U G19U | 0.24
C8A G40U | 0.34
C8A G40A | 0.27
C8A G40C | 0.22
C8U A14G | 0.19
C8U A14U | 0.09
C8U A14C | 0.15
C8U C13U | 0.81
C8U C13A | 0.5
C8U C13G | 0.29

Variant | self-cleavage
C8U G33A | 0.15
C8U G33C | 0.07
C8U G33U | 0.16
C8G C37A | 0.04
C8G C37G | 0.09
C8G C37U | 0.05
C8G G22U | 0.09
C8G G22C | 0.06
C8G G22A | 0.1
C8U C45G | 0.46
C8U C45A | 0.21
C8U C45U | 0.32
U9A | 0.17
C8U G21A | 0.39
C8U G21C | 0.25
C8U G21U | 0.25
C8A U9C | 0.14
C8A U9A | 0.24
C8A U9G | 0.03
C8A G29A | 0.26
C8A G29U | 0.43
C8A G29C | 0.14
C8A U20A | 0.14
C8A U20C | 0.15

Variant | self-cleavage
C8A U20G | 0.15
C8A C45A | 0.7
C8A C45U | 0.32
C8A C45G | 0.28
C8A C37G | 0.1
C8A C37A | 0.12
C8A C37U | 0.17
C8G G33C | 0.04
C8G G33U | 0.03
C8G G33A | 0.12
C8U C10U | 0.08
C8U C10G | 0.02
C8U C10A | 0.03
C8U U32G | 0.1
C8U U32C | 0.12
C8U U32A | 0.1
C8U G36A | 0.77
C8U G36U | 0.2
C8U G36C | 0.27
C8U G27U | 0.14
C8U G27A | 0.14
C8U G27C | 0.11
C8G G21C | 0.06
C8G G21A | 0.32

Variant | self-cleavage
C8G G21U | 0.13
C8U G40C | 0.13
C8U G40A | 0.41
C8U G40U | 0.29
C8U C46U | 0.56
C8U C46A | 0.33
C8U C46G | 0.2
C8A G27U | 0.16
C8A G27C | 0.12
C8A G27A | 0.17
C8G A26U | 0.11
C8G A26G | 0.07
C8G A26C | 0.14
C8G A14C | 0.11
C8G A14U | 0.08
C8G A14G | 0.08
C8A C10G | 0.02
C8A C10A | 0.04
C8A C10U | 0.08
C8U A12G | 0.08
C8U A12C | 0.04
C8U A12U | 0.29
